± gives the uncertainty stated by the source.
Assay: amyloid nucleation score (Sup35N fusion, yeast selection) (log enrichment); library NNK3; higher = more nucleation; inactive = no reads after selection
Outline: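 The nucleation score is the DiMSum log enrichment of output over input reads, centred on the mode score of non-aggregating sequences. Only sequences with 100 or more input reads were scored, using Illumina sequencing of input and output plasmid inserts. Psi-negative yeast expressing Sup35N fused to peptides of 20 random codons were induced 24 hours with 100 μM copper sulfate and grown 7 days at 30°C on medium lacking adenine and uracil.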
In the case of IKTRAKLLYFQLVVLTNFLP, the amyloid nucleation score is reported as “inactive”. For AALAY, the amyloid nucleation score was “inactive”. For SVYYTPCAFFRLIEGNLEGL, the amyloid nucleation score was “inactive”. In the case of SKAVSLCGLRLMFFPLYPGS, the amyloid nucleation score is reported as “inactive”. In the case of NYVICVYFMAGVSACMTLLV, the amyloid nucleation score is reported as “inactive”. In the case of MYLDIESDMSNTGAE, the amyloid nucleation score is reported as “inactive”. With GRLLMFASDLLNSPRMCWTE the amyloid nucleation score was -0.687 ± 1.8. For TFCGFKP, the amyloid nucleation score was “inactive”. With GMCVGDLEAQTSEGTSNESW the amyloid nucleation score was “inactive”. In the case of CTSLRLESPDFFSKRERSSN, the amyloid nucleation score is reported as “inactive”. In the case of TDMIQYKHRLYTIILSNYAR, the amyloid nucleation score is reported as “inactive”. For KANDMVFMGGGVLKLGRTLA, the amyloid nucleation score was “inactive”. For NSKYLLD, the amyloid nucleation score was “inactive”. For SCSGW, the amyloid nucleation score was -0.351 ± 1.1. With VSFHRRKLNHCNCRML the amyloid nucleation score was “inactive”. In the case of YCCAKL, the amyloid nucleation score is reported as “inactive”. For GHWSEKSDGTNKSYVVRSGM, the amyloid nucleation score was “inactive”. Substance RRSISGKVLFTRIQSYLLKF has an amyloid nucleation score of -0.759 ± 1. In the case of AFTRQIIWRDGGERPPWMRV, the amyloid nucleation score is reported as “inactive”. With VFDDY the amyloid nucleation score was “inactive”. In the case of CSVGS, the amyloid nucleation score is reported as “inactive”. With VPVRSSYMTEMYVCSGISPR the amyloid nucleation score was “inactive”. For SFVSSMCVTGEKVEGSRPCC, the amyloid nucleation score was “inactive”. With SWVNDRQNFPASLLYRDYLL the amyloid nucleation score was “inactive”. Substance MCEMVFTWDSWLLRRIRQDW has an amyloid nucleation score of 1.5 ± 0.087. For CPTCESGKERGVKYVKFLNW, the amyloid nucleation score was “inactive”. For DDFSVPTDLIDVRRVS, the amyloid nucleation score was -0.047 ± 1. With RSMQFGVIYAYYHRMAG the amyloid nucleation score was “inactive”. With LNLCTRLVFNPVTFQGNTFK the amyloid nucleation score was “inactive”. In the case of QCMIYYTDKLLKYSSCTRTM, the amyloid nucleation score is reported as “inactive”. In the case of SNASQLY, the amyloid nucleation score is reported as “inactive”. Substance YSVFGVNKQMAFAVCDWHHC has an amyloid nucleation score of 0.477 ± 0.17. For MSKDFSRGVQLTDRCLLC, the amyloid nucleation score was “inactive”. Work on TLVGTFYSMQRSDRIWR yielded an amyloid nucleation score of 0.475 ± 0.69. For ILPLMEFGEPKFESSVYSS, the amyloid nucleation score was “inactive”. In the case of VVCLFDVKFESARVLDLLSV, the amyloid nucleation score is reported as “inactive”. With ILLSSHSSECNNALIRRF the amyloid nucleation score was 1.46 ± 0.074. For YGYVLTSTVGVILVYWSYSC, the amyloid nucleation score was “inactive”. For MEYWYYDMD, the amyloid nucleation score was “inactive”. For KDLNENGRLFIIDPIIFSMF, the amyloid nucleation score was “inactive”. For CRGTEAGHPHVGIDHRARMV, the amyloid nucleation score was -0.957 ± 1.8. In the case of ADYLLSYACQSTLSHQKKRP, the amyloid nucleation score is reported as -0.854 ± 1.7. In the case of DGLIECWDFNRIMGLNKQNK, the amyloid nucleation score is reported as -1.33 ± 1.9. With LIVFWDGFMCT the amyloid nucleation score was “inactive”. Work on MVLLI yielded an amyloid nucleation score of -0.031 ± 1. With SEKYATSKYCQVTFGVTLPS the amyloid nucleation score was “inactive”. Substance WIHSGSSHWLNACDRMDMTK has an amyloid nucleation score of -0.753 ± 1.3. For SQTIYGI, the amyloid nucleation score was “inactive”. Substance HLNLTHNWNVYGKDLNGQFF has an amyloid nucleation score of 2.13 ± 0.072. With NCNTVKYGMFGAWSNSAV the amyloid nucleation score was 0.313 ± 0.18. For FKQMDTLTHISFSKAIMPSF, the amyloid nucleation score was “inactive”. For KPWMVEAPFERA, the amyloid nucleation score was “inactive”. With TNPTVYWDRGMVGCKKLRAH the amyloid nucleation score was “inactive”. For HVLGRKLFHGVAVVLFSCEL, the amyloid nucleation score was “inactive”. With NNVVVL the amyloid nucleation score was “inactive”. With HWQYCLIFNQYVLKLCATHC the amyloid nucleation score was 1.04 ± 0.16. In the case of GYRSCCCEKLRSRSCGSSWA, the amyloid nucleation score is reported as “inactive”. Substance ISLVLVCYKASVITLWENQW has an amyloid nucleation score of -0.627 ± 1.4. For SCQSGMSLCLSDHRLA, the amyloid nucleation score was “inactive”. For YEIFSVSLR, the amyloid nucleation score was -0.221 ± 0.9. Work on FNFVYV yielded an amyloid nucleation score of 0.062 ± 0.88. In the case of FSNQSNFNMELLLKDRDSTP, the amyloid nucleation score is reported as “inactive”. For AVSTTTSMVINRLRACKYAY, the amyloid nucleation score was “inactive”. For SRLCARMSSGKTIGYCNLFL, the amyloid nucleation score was “inactive”. Work on TIFFMYWLSPGFSPPI yielded an amyloid nucleation score of 0.148 ± 0.39. In the case of MPCLYALLYG, the amyloid nucleation score is reported as “inactive”. Substance CVNLYVELKFNHFDFVS has an amyloid nucleation score of 2.04 ± 0.09. For HVSGVIYVVGNN, the amyloid nucleation score was “inactive”. Work on FLVLVGIGIGMYLFVNHYVD yielded an amyloid nucleation score of 1.64 ± 0.088. With TCFLRRFYWRYSGFYATAHY the amyloid nucleation score was “inactive”. In the case of AIFTFVPLSPTRTHGWDHCR, the amyloid nucleation score is reported as “inactive”. With YVLRLASCSFTPVSEVHLSW the amyloid nucleation score was “inactive”. With SYFTMTDSSFSVAFANLLVY the amyloid nucleation score was 0.289 ± 0.78. For DSVKSALRRGI, the amyloid nucleation score was -0.166 ± 0.9. In the case of VRGLDVCTDEFCVQLDYMW, the amyloid nucleation score is reported as “inactive”. For HPMRGDVGSRAVFRMGHFIH, the amyloid nucleation score was “inactive”. With PTITNS the amyloid nucleation score was “inactive”. With NLSSCIFVVS the amyloid nucleation score was “inactive”. With MYSHLNTCTTAKPQVFCSKL the amyloid nucleation score was “inactive”. For SQITRMTPPVSIAADSRFVE, the amyloid nucleation score was “inactive”. For KVAILVHILNNLVRVRVCFN, the amyloid nucleation score was “inactive”. For RLCSFTRYLNGATSANNVKL, the amyloid nucleation score was “inactive”. In the case of HSWFFGFIFWLLNDHSIHYG, the amyloid nucleation score is reported as “inactive”. For YCAYLLRSLWLGTAWEWWRQ, the amyloid nucleation score was “inactive”. In the case of IRTSLSSVLDVCHTSNTI, the amyloid nucleation score is reported as “inactive”. With DVDVPT the amyloid nucleation score was “inactive”. In the case of SNFVVSNPISSRGTMNIRII, the amyloid nucleation score is reported as “inactive”. With VHSCEMSSPPTILKVKLVYL the amyloid nucleation score was “inactive”. For RCVSFTLKIGLIFKQTPSCR, the amyloid nucleation score was “inactive”. For IPEYYKIRWRYGACRSCIVI, the amyloid nucleation score was “inactive”. With GMNKLL the amyloid nucleation score was “inactive”. With LQVARIMVSWIDQCGENRTD the amyloid nucleation score was “inactive”. With LCWTVVIHVRTAVRIWLTSR the amyloid nucleation score was “inactive”. With PFDVHKRR the amyloid nucleation score was “inactive”. With IKWFLSNGIYYGILNFIDTR the amyloid nucleation score was “inactive”. With LYGIFHRYTNFCSSVLCQVF the amyloid nucleation score was 1.66 ± 0.12. In the case of GWGIICFAKY, the amyloid nucleation score is reported as “inactive”. For HLRDMQRSQNLVG, the amyloid nucleation score was “inactive”. With HINARRLYFTYV the amyloid nucleation score was “inactive”. With DNWFN the amyloid nucleation score was “inactive”. In the case of YFYSHRYI, the amyloid nucleation score is reported as “inactive”. In the case of GSFTASFDGFQGSIMVERGG, the amyloid nucleation score is reported as “inactive”. With VLSSWTIK the amyloid nucleation score was “inactive”. For FGMGKRLSNENMPLVSCTGL, the amyloid nucleation score was “inactive”. In the case of RGSGWRTYVCTGSYALRV, the amyloid nucleation score is reported as “inactive”. For VSDIGCMGVDSLSPGYHNIV, the amyloid nucleation score was “inactive”. With PYLRT the amyloid nucleation score was “inactive”. For LCCAPNADFWIN, the amyloid nucleation score was “inactive”. For LGQFAIAQYFNRYSRGPMLW, the amyloid nucleation score was “inactive”. For RLWYGTYWFT, the amyloid nucleation score was “inactive”. With ILLKNFGYEHAAKLNTMKMI the amyloid nucleation score was “inactive”. For NILMAGDMHSRA, the amyloid nucleation score was “inactive”. In the case of NFRNRMRVLFSCS, the amyloid nucleation score is reported as “inactive”. With FNSDKMAPLTGLCEVVRFGR the amyloid nucleation score was “inactive”. With MSHCYYEFARVPKWHERCPS the amyloid nucleation score was “inactive”. For YYFCMLS, the amyloid nucleation score was 2.55 ± 0.072. For GIAGCKSRSCLLPYCNWVSV, the amyloid nucleation score was “inactive”. In the case of CFLMN, the amyloid nucleation score is reported as “inactive”. With SWYGQLLCVTVVRYHCAPCG the amyloid nucleation score was “inactive”. For YKDRR, the amyloid nucleation score was “inactive”. In the case of NMKSCFHRMDPHWGTGFHSL, the amyloid nucleation score is reported as “inactive”. In the case of FRFSR, the amyloid nucleation score is reported as “inactive”. In the case of DIFSRSVS, the amyloid nucleation score is reported as “inactive”. With GFMLWTHKKLARPEATAV the amyloid nucleation score was “inactive”. For IMTVSLGGRNSDSDNLSCLD, the amyloid nucleation score was “inactive”. With HWPCLNSYEAIVFFCGMDSH the amyloid nucleation score was “inactive”. For MLHFG, the amyloid nucleation score was “inactive”. For PLIWCWKIVGRAWFAESRIL, the amyloid nucleation score was “inactive”. For VMHGFVGAAKSNWKNPWHRA, the amyloid nucleation score was “inactive”. With ICAGLWAD the amyloid nucleation score was “inactive”. For CTTVDVGALVDGESNHCISL, the amyloid nucleation score was “inactive”. With TDRLGCSFELCAPTCKCAGV the amyloid nucleation score was “inactive”. With ICCKYGDAKRLVCWSQKSRK the amyloid nucleation score was “inactive”. In the case of DLPSMSIVIVIQKLYARVNR, the amyloid nucleation score is reported as “inactive”. With TEGAYRSW the amyloid nucleation score was “inactive”. In the case of FVLIPSHRAW, the amyloid nucleation score is reported as “inactive”. In the case of YNMFACGVCTLFKVGKANKF, the amyloid nucleation score is reported as 2.96 ± 0.074. In the case of VKFYNLRRCVIDLMITLSRM, the amyloid nucleation score is reported as “inactive”. In the case of NEHSYLSGSWYPRSHLIYYC, the amyloid nucleation score is reported as “inactive”. With RKSHD the amyloid nucleation score was “inactive”. For DHVGADMGLCDNVG, the amyloid nucleation score was “inactive”. Substance VMLFY has an amyloid nucleation score of 0.845 ± 0.14. For HPRELYTFKKSWFLGRDS, the amyloid nucleation score was “inactive”. Substance LLCLLQYLWPRRDSYYACLR has an amyloid nucleation score of 0.782 ± 0.18. With RTRCAPLDMVEL the amyloid nucleation score was “inactive”. In the case of SSDRLYFINGRMRNRFARFC, the amyloid nucleation score is reported as “inactive”. For CSLRLVAFSACGV, the amyloid nucleation score was “inactive”. SFNHFQCLFISPLTRCARGV gave an amyloid nucleation score of 1.51 ± 0.13. With SVNFSYASAIPHAQMIQVRV the amyloid nucleation score was “inactive”. With FWTVHLVT the amyloid nucleation score was “inactive”. With FLDGFVQPISESINLLMFCT the amyloid nucleation score was “inactive”. For ISDPRLGKVPLWDMSSIVYV, the amyloid nucleation score was “inactive”. In the case of KVCHSWVWHILGSLDYITRG, the amyloid nucleation score is reported as “inactive”. For FIFSTLHNVLHGSNRVNSVW, the amyloid nucleation score was “inactive”. ARRDLFHWCRRQSCVYN gave an amyloid nucleation score of -0.275 ± 1.1. With YVWMKGHNHYFFESMDVYLM the amyloid nucleation score was “inactive”. With FILLGRNGLG the amyloid nucleation score was “inactive”. RLSQCRLLVFDGTQVFMCCV showed an amyloid nucleation score of 2.01 ± 0.077. For AYYNMK, the amyloid nucleation score was -0.111 ± 0.21. With CSSGYIQKMVSRYMSYGYHF the amyloid nucleation score was “inactive”. In the case of NSGHLVLGCMYIFSNGFVDR, the amyloid nucleation score is reported as 1.22 ± 0.14.

Reference: the supplement of paper PMC12042874
